In publication PMC11357561, “Efficient 2,3-Butanediol Production from Ethanol by a Modified Four-Enzyme Synthetic Biosystem” (Molecules, 2024):

What was measured:
Assay in all cases: acetoin formation, Voges-Proskauer test, Michaelis-Menten fit
Conditions in all cases: 100 mM phosphate pH 8.0, 0.1 mM TPP, 1 mM Mg2+, 2-600 mM acetaldehyde
CC=O = test system: T1, CC=O; type: biochemical, Pseudomonas fluorescens
T1 construct: computationally designed formolase derived from benzaldehyde lyase; pET28a, E. coli BL21(DE3), Ni-NTA His-tag purified
Source text: (§1) acetoin formation, Voges-Proskauer test, Michaelis-Menten fit on formolase (FLS)

formolase (FLS) [1] = target: T2, formolase (FLS) (Pseudomonas fluorescens, UniProt Q9F4L3, A28I/W89R/L90T/R188H/A394G/G419N/A480W); type: biochemical
T2 construct: gene bznB; computationally designed formolase derived from benzaldehyde lyase; pET28a, E. coli BL21(DE3), Ni-NTA His-tag purified
T2 sequence (Q9F4L3 1-563 A28I/W89R/L90T/R188H/A394G/G419N/A480W): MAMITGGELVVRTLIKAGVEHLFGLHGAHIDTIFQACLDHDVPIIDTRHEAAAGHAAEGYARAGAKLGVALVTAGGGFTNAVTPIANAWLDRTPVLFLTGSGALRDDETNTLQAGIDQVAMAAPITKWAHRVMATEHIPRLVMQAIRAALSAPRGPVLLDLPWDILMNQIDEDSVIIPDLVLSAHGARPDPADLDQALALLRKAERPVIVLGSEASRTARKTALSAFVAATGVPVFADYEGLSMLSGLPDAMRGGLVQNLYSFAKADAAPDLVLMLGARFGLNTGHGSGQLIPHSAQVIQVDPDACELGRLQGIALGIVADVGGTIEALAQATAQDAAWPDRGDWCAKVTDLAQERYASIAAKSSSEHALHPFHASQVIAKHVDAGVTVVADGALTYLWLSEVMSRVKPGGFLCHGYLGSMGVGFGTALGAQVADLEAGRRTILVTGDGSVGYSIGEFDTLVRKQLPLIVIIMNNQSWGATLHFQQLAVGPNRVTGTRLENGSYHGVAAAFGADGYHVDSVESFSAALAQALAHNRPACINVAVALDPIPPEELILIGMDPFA
Source text: as §1

formolase (FLS) [2] = target: T3, formolase (FLS) (Pseudomonas fluorescens, UniProt Q9F4L3, A28I/W89R/L90T/R188H/A394G/G419N/A480W/L482E); type: biochemical
T3 construct: gene bznB; computationally designed formolase derived from benzaldehyde lyase; pET28a, E. coli BL21(DE3), Ni-NTA His-tag purified
T3 sequence (Q9F4L3 1-563 A28I/W89R/L90T/R188H/A394G/G419N/A480W/L482E): T2 sequence (Q9F4L3 1-563 A28I/W89R/L90T/R188H/A394G/G419N/A480W)
Source text: as §1

formolase (FLS) (Pseudomonas fluorescens; A28V/A394G/A480W/G419N/L90T/R188H/W89R)
Km (CC=O): 81.95 ± 3.61 mM
kcat (CC=O): 3.33 ± 0.21 s⁻¹
kcat/Km (CC=O): 40.6 M⁻¹ s⁻¹

formolase (FLS) (Pseudomonas fluorescens; A28I/A394G/A480W/F484A/G419N/L90T/R188H/W89R)
Km (CC=O): 53.28 ± 2.52 mM
kcat (CC=O): 1.74 ± 0.12 s⁻¹
kcat/Km (CC=O): 32.6 M⁻¹ s⁻¹

CC=O [acetaldehyde]
Km (formolase (FLS) [1]): 58.5 ± 2.32 mM
Km (formolase (FLS) [2]): 50.9 ± 3.22 mM
